# Tests used:
# mouse PD-L1 = mouse PD-L1 (mouse, UniProt Q9EP73 19-239, limits assumed); assay: assay not described
# recombinant human PD-L1 [1] = molecular target: T1, recombinant human PD-L1 (human, UniProt Q9NZQ7 19-238, limits assumed); assay: ELISA on human PD-L1, OD 650 nm
# T1 construct: also called PD-L1 protein
# human PD-L1 on cells [2] = molecular target: T2, human PD-L1 on cells (human, UniProt Q9NZQ7 19-290); assay: flow cytometry on HEK PD-L1 cells, MFI
# T2 construct: whole, on cells; also called HEK-PD-L1 cells; PD-L1-expressing HEK 293 cells
# human PD-L1 on cells [3] = molecular target: T2, human PD-L1 on cells; assay: flow cytometry on activated CD4 T cells, MFI
# human PD-L1 on cells [4] = molecular target: T2, human PD-L1 on cells; assay: flow cytometry on HEK-PD-L1 cells; PE anti-human Fc, MFI
# human PD-L1 on cells [5] = molecular target: T2, human PD-L1 on cells; assay: flow cytometry on monocyte-derived dendritic cells, MFI
# human PD-L1 on cells [6] = molecular target: T2, human PD-L1 on cells; assay: flow cytometry on HEK PD-L1 cells, saturation fit on a linear axis
# human PD-L1 on cells [7] = molecular target: T2, human PD-L1 on cells; assay: flow cytometry on monocyte-derived dendritic cells; PE anti-human Fc, MFI
# Description: The chimeric PD-L1 antibodies were further assessed for their ability to bind to human myeloid-derived dendritic cells. CD14 monocytes were isolated from PBMC using directly conjugated magnetic beads (Miltenyi) and cultured for 7 days in the presence of GM-CSF (100 ng/ml) and IL-4 (50 ng/ml) (Peprotech) to generate myeloid dendritic cells (mDC). mDC were added to 96-well plates (100,000 cells/well) and serial dilution of anti-PD-L1 antibodies or IgG1 isotype control antibody was added in duplicates and plates were incubated for 30 min on ice. After washing, a PE-conjugated donkey anti-human Fc specific antibody (Jackson Immunoresearch, 1:200 dilution) was added and plates were further incubated for 15 minutes on ice. After washing, cells were analyzed using a MACS quant flow cytometer.
# human PD-L1 on cells [8] = molecular target: T2, human PD-L1 on cells; assay: flow cytometry on activated CD4 T cells, saturation fit on a linear axis
# human PD-L1 on cells [9] = molecular target: T2, human PD-L1 on cells; assay: flow cytometry on human PD-L1 transfected HEK 293 cells; PE anti-human Fc, MFI
# Description: Stable human PD-L1 transfected HEK 293 cells (Crown Bio, San Diego, Calif.) were added to 96-well plates (100,000 cells/well) and serial dilution of anti-PD-L1 antibodies or IgG1 isotype control antibody was added in duplicates and plates were incubated for 30 minutes on ice. After washing, a PE-conjugated donkey anti-human Fc specific antibody (Jackson Immunoresearch, West Grove, Pa. 1:200 dilution) was added and plates were further incubated for 15 minutes on ice. After washing, cells were analyzed using a MACS quant flow cytometer.
# human PD-L1 on cells [10] = molecular target: T2, human PD-L1 on cells; assay: flow cytometry on monocyte-derived dendritic cells, saturation fit on a linear axis
# [11] = molecular target: T3, recombinant cynomolgus monkey PD-L1 (cynomolgus monkey, UniProt G7PSE7 19-238); assay: direct ELISA on plate-coated recombinant cynomolgus monkey PD-L1; anti-human Fc-HRP, TMB, OD 650 nm
# T3 construct: also called cynomolgus macaque PD-L1
# Description: To assess specificity of the selected clones, a direct ELISA for human and cynomolgus monkey PD-L1 was performed. ELISA plates were coated with recombinant human or cynomolgus monkey PD-L1. […] Serial dilutions of chimeric anti-PD-L1 antibodies were added, and a secondary HRP-conjugated, anti-human Fc-specific antibody was added. After washing, TMB substrate was added and plates were read at OD 650 nm.
# human PD-L1 on cells [12] = molecular target: T2, human PD-L1 on cells; assay: flow cytometry on HEK-PD-L1 cells, saturation fit on a linear axis; column head prints only Kd, unit taken from the axis Ab (nM)
# [13] = molecular target: T4, human PD-L1-his (Sino Biologics) (human, UniProt Q9NZQ7 19-238); assay: competition ELISA: human PD-L1-his coated at 1 µg/ml, antibody dilutions, then human PD-1-mouse-Fc at 1 µg/ml, anti-mouse IgG-HRP, OD 650 nm
# T4 construct: Bought from Sino Biologics; not shown: his tag
# Description: Plates were coated with 100 μl of 1 μg/ml human PD-L1-his (Sino Biologics, Beijing, China) in carbonate-bicarbonate buffer overnight. After washing, plates were blocked with PBS 0.05% Tween-20 for 1 hour, and serial dilutions of anti-PD-L1 human chimeric antibody or IgG1 isotype control antibody was added. […] After washing, goat anti-mouse IgG (H+L)-HRP antibody (Jackson ImmunoResearch West Grove, Pa.) and plates were further incubated for 1 hour. After washing, TMB substrate (SurModics, Eden Prairie, Minn.) was added. The reaction was stopped using stop solution (SurModics) and plates were read at OD=650 nanometer.
# human PD-L1 on cells [14] = molecular target: T2, human PD-L1 on cells; assay: flow cytometry on CD4 T cells activated with anti-CD3; MFI; column head prints only EC50, unit taken from the axis Antibody Concentration (nM)
# recombinant human PD-L1 [15] = molecular target: T1, recombinant human PD-L1; assay: competition ELISA: PD-L1 coated, serial dilutions of the antibody, then biotinylated Atezolizumab at 1 µg/ml, streptavidin-HRP, OD 650 nm
# T2 sequence (Q9NZQ7 19-290): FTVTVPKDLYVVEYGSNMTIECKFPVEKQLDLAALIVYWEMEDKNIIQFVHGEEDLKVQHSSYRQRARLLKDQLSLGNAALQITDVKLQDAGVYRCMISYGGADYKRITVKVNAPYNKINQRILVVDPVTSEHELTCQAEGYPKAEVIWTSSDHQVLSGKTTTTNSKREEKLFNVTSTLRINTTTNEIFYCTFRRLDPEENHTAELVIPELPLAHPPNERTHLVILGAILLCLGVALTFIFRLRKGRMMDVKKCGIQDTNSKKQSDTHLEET
# T1 sequence (Q9NZQ7 19-238 limits assumed): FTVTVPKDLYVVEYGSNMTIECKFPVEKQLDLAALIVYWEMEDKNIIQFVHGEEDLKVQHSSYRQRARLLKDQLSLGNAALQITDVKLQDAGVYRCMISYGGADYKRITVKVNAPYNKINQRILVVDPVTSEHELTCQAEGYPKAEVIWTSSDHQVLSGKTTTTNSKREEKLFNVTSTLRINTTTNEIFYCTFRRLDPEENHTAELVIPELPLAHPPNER
# Chain of mouse PD-L1 (Q9EP73 19-239 limits assumed): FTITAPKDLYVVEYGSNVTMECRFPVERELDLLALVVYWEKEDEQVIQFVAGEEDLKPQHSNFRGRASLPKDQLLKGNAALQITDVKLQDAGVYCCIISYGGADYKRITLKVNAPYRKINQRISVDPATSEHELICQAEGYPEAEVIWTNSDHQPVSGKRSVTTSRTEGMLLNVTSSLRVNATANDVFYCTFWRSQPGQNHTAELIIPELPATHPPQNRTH
# T4 sequence (Q9NZQ7 19-238 limits assumed): as the sequence (Q9NZQ7 19-238 limits assumed) above
# T3 sequence (G7PSE7 entry or part of it limits assumed): as the sequence (Q9NZQ7 19-238 limits assumed) above, with A33T, A34S, S62N, R68Q, Q82R, F173L, T185A, T192I, H215L counted along it
binding result (mouse PD-L1),EC50 (recombinant human PD-L1 [1]),EC50 (human PD-L1 on cells [2]),EC50 (human PD-L1 on cells [3]),EC50 (read off the curve) (human PD-L1 on cells [4]),EC50 (human PD-L1 on cells [5]),Kd (human PD-L1 on cells [6]),EC50 (human PD-L1 on cells [7]),Kd (human PD-L1 on cells [8]),EC50 (human PD-L1 on cells [9]),Kd (human PD-L1 on cells [10]),EC50 (read off the curve) [11],Kd (human PD-L1 on cells [12]),IC50 (read off the curve) [13],EC50 (human PD-L1 on cells [14]),binding result (recombinant human PD-L1 [15]),Binder
no binding,7.13 ng/mL,0.27 nM,0.019 nM,~0.4 nM,1.66 nM,0.16 nM,0.4 nM,0.015 nM,0.17 nM,0.79 nM,~4 ng/mL,0.3 nM,~20 ng/mL,0.68 nM,–,"chimeric anti-PD-L1 antibody 9A9 (antibody, human IgG1, V domains shown, also called c9A9; chimeric 9A9) VH: QSVEESGGRLVTPGTPLTLTCTVSGIDLSGYWMSWVRQAPGKGLEYIGIVDNDGSAYYASWVNGRFTISKTSTTVDLKITSPTTEDTATYFCARQSGDWTFDLWGPGTLVTVSS VL: DVVMTQTPASVSEPVGGTVTIKCQASQSIGRWLSWYQQKPGQPPKLLIYQASKLASGVPSRFSGSGSGTEFTLTISDLECADAATYYCQNNYDIIAYGNAFGGGTEVVVK"
–,–,–,–,–,–,–,–,–,–,–,–,–,–,–,binds,"chimeric anti-PD-L1 antibody 11B11 (antibody, human IgG1, V domains shown) VH: QSVEESGGRLVTPGGTLTLTCTASGFSLSNYTMAWVRQAAGKGLEWIGYINTGGSPYYASWAKGRFTISRSSTTVDLKMTSLTTEDTATYFCARNVDGAWNYLNLWGPGTLVTVSS VL: AYDMTQTPASVEVVVGGTVTIKCQASETINTYLSWYQQKPGQRPRLLIYAASNLASGVPSRFSGSGSGTEFTLTISGVQCADAATYYCQQGINSNVGNTFGGGTEVVVK"

# — patent US20190218296A1 (APEXIGEN, published 2019)
